Assay results from patent US12269859B2, “Synthetic immune receptors and methods of use thereof” (Angeles Therapeutics, Inc., priority 2016, dated 2025).

B1: IL-7: exogenous recombinant human IL-7 (protein, UniProt P13232 26-177, looked up)
Interleukin-7: DCDIEGKDGKQYESVLMVSIDQLLDSMKEIGSNCLNNEFNFFKRHICDANKEGMFLFRAARKLRQFLKMNSTGDFDLHLLKVSEGTTILLNCTGQVKGRKPAALGEAQPTKSLEENKSLKEQKKLNDLCFLKRLLQEIKTCWNKILMGTKEH
B2: 121815-C05 (protein)
chain: MALPVTALLLPLALLLHAARPDELQMTQSPSSLSASVGDRVTITCRASQSISSYLNWYQQKPGQPPKLLIYWASTRESGVPDRFSGSESGTNYTLTISSLQPEDFATYFCQQSDSLPITFGQGTRLDIQLEGKPIPNPLLGLDSTGSGEDLKNVFPPEVAVFEPSKAEIAHTQKATLVCLATGFYPDHVELSWWVNGKEVHSGVCTDPQPLKEQPALNDSRYCLSSRLRVSATFWQNPRNHFRCQVQFYGLSENDEWTQDRAKPVTQIVSAEAWGRADCGITSASYHQGVLSATILYEILLGKATLYAVLVSALVLMAMVKRKDSRGRAKRSGSGATNFSLLKQAGDVEENPGPTSMDWIWRILFLVGAATGAHSFEEVQLLESGGGVVQPGRSLRLSCAASGFTFSSYGMHWVRQAPGKGLEWVAVISYDGSNKYYADSVKGRFTISRDNSKNTLYLQMNSLRAEDTAVYYCAKDMGWGSGWRPYYYYGMDVWGQGTTVTVSSTREQKLISEEDGSGIQNPDPAVYQLRDSKSSDKSVCLFTDFDSQTNVSQSKDSDVYITDKCVLDMRSMDFKSNSAVAWSNKSDFACANAFNNSIIPEDTFFPSSDVPCDVKLVEKSFETDTNLNFQNLSVIGFRILLLKVAGFNLLMTLRLWSSRAKRSGSGVKQTLNFDLLKLAGDVESNPGPSRGHMTEYKPTVRLATRDDVPRAVRTLAAAFADYPATRHTVDPDRHIERVTELQELFLTRVGLDIGKVWVADDGAAVAVWTTPESVEAGAVFAEIGPRMAELSGSRLAAQQQMEGLLAPHRPKEPAWFLATVGVSPDHQGKGLGSAVVLPGVEAAERAGVPAFLETSAPRNLPFYERLGFTVTADVEVPEGPRTWCMTRKPGA
modifications: Synthetic Immune Receptor (SIR)
B3: 010716-G03 (protein)
chain: MALPVTALLLPLALLLHAARPDIQMTQSFSSLSASVGDRVTITCRASQDISNYLNWYQQKPGKAPKLLIYYTSRLHSGVPSRFSGSGSGTDYTLTISSLQPEDFATYFCQQGNTLPWTFGGGTKLEIKRLEGKPIPNPLLGLDSTGSGEDLKNVFPPEVAVFEPSKAEIAHTQKATLVCLATGFYPDHVELSWWVNGKEVHSGVCTDPQPLKEQPALNDSRYCLSSRLRVSATFWQNPRNHFRCQVQFYGLSENDEWTQDRAKPVTQIVSAEAWGRADCGITSASYHQGVLSATILYEILLGKATLYAVLVSALVLMAMVKRKDSRGRAKRSGSGATNFSLLKQAGDVEENPGPTSMDWIWRILFLVGAATGAHSFEEVQLVQSGGGLVQSGGSLRLSCRASGYTFTRYWMLWVRQRPGKGLEWVAEINPRNDRTNYNEKFKTRFTISVDRSKNTLYLQMDSLRAEDTAVYFCALGGGYAMDYWGQGTLVTVSSTREQKLISEEDGSGIQNPDPAVYQLRDSKSSDKSVCLFTDFDSQTNVSQSKDSDVYITDKCVLDMRSMDFKSNSAVAWSNKSDFACANAFNNSIIPEDTFFPSSDVPCDVKLVEKSFETDTNLNFQNLSVIGFRILLLKVAGFNLLMTLRLWSSRAKRSGSGVKQTLNFDLLKLAGDVESNPGPSRGHMTEYKPTVRLATRDDVPRAVRTLAAAFADYPATRHTVDPDRHIERVTELQELFLTRVGLDIGKVWVADDGAAVAVWTTPESVEAGAVFAEIGPRMAELSGSRLAAQQQMEGLLAPHRPKEPAWFLATVGVSPDHQGKGLGSAVVLPGVEAAERAGVPAFLETSAPRNLPFYERLGFTVTADVEVPEGPRTWCMTRKPGA
modifications: Synthetic Immune Receptor (SIR)

Experiments:
[1] = system: RAJI cells; experiment: RAJI xenograft model of lymphoma in NSG mice (survival); format: in vivo; conditions: 200 ng/mouse intraperitoneal three times, with SIR-T cells
Description: In vivo efficacy of SIR targeting CD19. […] SIR constructs and Gluc-PAC-G07 control construct encoding non-secretory form of Guassia Luciferase. Approximately half the cells were selected with puromycin while the other half was expanded without puromycin selection. NSG mice (Jackson Lab) were sub-lethally irradiated at a dose of 175 cGy. Approximately 24 hours post irradiation (day 2), mice were injected with 2.5×10^4 RAJI cells via tail-vein. […] Control mice (n=5) received no T cells or uninfected T cells. Mice were given human IL2 (400 IU intraperitoneally) on alternate days till the death of all mice in control group.
Approximately half the cells were selected with puromycin while the other half was expanded without puromycin selection. NSG mice (Jackson Lab) were sub-lethally irradiated at a dose of 175 cGy. Approximately 24 hours post irradiation (day 2), mice were injected with 2.5×10^4 RAJI cells via tail-vein. […] Control mice (n=5) received no T cells or uninfected T cells. Mice were given human IL2 (400 IU intraperitoneally) on alternate days till the death of all mice in control group.
SIR construct. NSG mice (Jackson Lab) were sub-lethally irradiated at a dose of 175 cGy. Approximately 24 hours post irradiation (day 2), mice were injected with 2.5×10^4 RAJI cells via tail-vein. […] SIR encoding lentivirus. […]

[2] = system: SKOV-3 cells; experiment: SKOV-3 intraperitoneal xenograft in NSG mice (survival); format: in vivo; conditions: NSG mice (n = 3), 1×10^6 SKOV-3 cells intraperitoneally, 5 million T cells intravenously
Description: Human peripheral blood T cells isolated using CD3 magnetic beads were infected with lentiviruses expressing the indicated SIR constructs targeting Folate receptor 1 (FR1), L1CAM and Epcam1. On day 1, the NSG mice were sub-lethally irradiated at a dose of 175 cGy. 24 hours post irradiation (day 2), mice were injected with 1×10^6 SKOV-3 cells intraperitoneally. On day 3, the mice were treated intravenously with 5 million indicated CAR-T cells. Beginning On day 4, mice were injected with human IL-2 i.p. at a dose of 400 IU/mice every alternate day after the injection CAR-T cells till the death of all mice in control group.

[3] = system: target antigen-expressing cell line; experiment: Jurkat NFAT-GFP assay, coculture with target cell lines expressing the respective target antigen (summary Table 10A); format: cell-based, human; set-up: key: The signs +/−, +, 2+ etc. after the name of the cell lines indicate the relative degree of positivity on the Jurkat-NFAT-GFP assay as measured by the % GFP positive cells; +: relative degree of positivity on the Jurkat-NFAT-GFP assay as measured by the % GFP positive cells; 2+: relative degree of positivity on the Jurkat-NFAT-GFP assay as measured by the % GFP positive cells
Procedure, shortened: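 Readout is % GFP+ cells by FACS, graded +/− to 2+ relative to parental reporter cells. Jurkat-NFAT-GFP cells stably transduced with SIR constructs (puromycin-selected) were mixed with target-antigen-expressing cell lines at roughly 1:2 effector:target and cocultured ~4–18 h.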

| Molecule | tumor rejection and survival (in words) [1] | Median Survival [2] | NFAT-GFP ASSAY Positive Cell lines ([3]; coculture with A549 cells) | NFAT-GFP ASSAY Positive Cell lines ([3]; coculture with PC3 cells) | NFAT-GFP ASSAY Positive Cell lines ([3]; coculture with SKOV3 cells) | NFAT-GFP ASSAY Positive Cell lines ([3]; coculture with LoVo cells) |
| --- | --- | --- | --- | --- | --- | --- |
| B1 | reject their tumor and survive longer | – | – | – | – | – |
| B2 | – | 63 days | A549 (2+), Hela | 2+ | (+) | – |
| B3 | – | 63 days | LoVo (+), A549 (+), | – | – | LoVo (+), A549 (+), |
